B1: Actin nucleation-promoting factor WAS (Homo sapiens), P42768 (parent)
chain: MSGGPMGGRPGGRGAPAVQQNIPSTLLQDHENQRLFEMLGRKCLTLATAVVQLYLALPPGAEHWTKEHCGAVCFVKDNPQKSYFIRLYGLQAGRLLWEQELYSQLVYSTPTPFFHTFAGDDCQAGLNFADEDEAQAFRALVQEKIQKRNQRQSGDRRQLPPPPTPANEERRGGLPPLPLHPGGDQGGPPVGPLSLGLATVDIQNPDITSSRYRGLPAPGPSPADKKRSGKKKISKADIGAPSGFKHVSHVGWDPQNGFDVNNLDPDLRSLFSRAGISEAQLTDAETSKLIYDFIEDQGGLEAVRQEMRRQEPLPPPPPPSRGGNQLPRPPIVGGNKGRSGPLPPVPLGIAPPPPTPRGPPPPGRGGPPPPPPPATGRSGPLPPPPPGAGGPPMPPPPPPPPPPPSSGNGPAPPPLPPALVPAGGLAPGGGRGALLDQIRQGIQLNKTPGAPESSALQPPPQSSEGLVGALMHVMQKRSRAIHSSDEGEDQAGDEDEDDEWDD

Legend:
Settings in all cases: with wipf1_human WIPF1, O43516
[1] = variants of: B1
[2] = variants of: B1; remark: listed apart in the source
[3] = variants of: B1; remark: listed apart in the source

wipf1_human WIPF1, O43516, sequence (O43516 whole entry): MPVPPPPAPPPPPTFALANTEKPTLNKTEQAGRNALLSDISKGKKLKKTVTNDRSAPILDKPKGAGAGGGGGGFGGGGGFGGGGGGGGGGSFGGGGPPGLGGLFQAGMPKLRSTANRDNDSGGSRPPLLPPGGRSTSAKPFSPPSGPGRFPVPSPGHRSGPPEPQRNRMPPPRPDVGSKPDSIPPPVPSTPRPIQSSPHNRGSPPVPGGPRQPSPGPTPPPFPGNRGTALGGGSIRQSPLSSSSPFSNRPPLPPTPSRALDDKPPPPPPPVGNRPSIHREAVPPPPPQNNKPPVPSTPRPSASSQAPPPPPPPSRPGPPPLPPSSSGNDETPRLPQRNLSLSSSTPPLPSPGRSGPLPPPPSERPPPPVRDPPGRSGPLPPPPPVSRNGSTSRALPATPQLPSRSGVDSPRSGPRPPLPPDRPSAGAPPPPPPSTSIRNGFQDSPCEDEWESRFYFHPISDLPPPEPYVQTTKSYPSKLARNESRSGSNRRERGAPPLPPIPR

Variant	effect of a mutation on the interaction [1]	effect of a mutation on the interaction [2]	effect of a mutation on the interaction [3]
MSGGPMGGRPGGRGAPAVQQNIPSTLLQDHKNQRLFEMLGRKCLTLATAVVQLYLALPPGAEHWTKEHCGAVCFVKDNPQKSYFIRLYGLQAGRLLWEQELYSQLVYSTPTPFFHTFAGDDCQAGLNFADEDEAQAFRALVQEKIQKRNQRQSGDRRQLPPPPTPANEERRGGLPPLPLHPGGDQGGPPVGPLSLGLATVDIQNPDITSSRYRGLPAPGPSPADKKRSGKKKISKADIGAPSGFKHVSHVGWDPQNGFDVNNLDPDLRSLFSRAGISEAQLTDAETSKLIYDFIEDQGGLEAVRQEMRRQEPLPPPPPPSRGGNQLPRPPIVGGNKGRSGPLPPVPLGIAPPPPTPRGPPPPGRGGPPPPPPPATGRSGPLPPPPPGAGGPPMPPPPPPPPPPPSSGNGPAPPPLPPALVPAGGLAPGGGRGALLDQIRQGIQLNKTPGAPESSALQPPPQSSEGLVGALMHVMQKRSRAIHSSDEGEDQAGDEDEDDEWDD [E31K]	with no effect	disrupting interaction strength	
MSGGPMGGRPGGRGAPAVQQNIPSTLLQDHENQRHFEMLGRKCLTLATAVVQLYLALPPGAEHWTKEHCGAVCFVKDNPQKSYFIRLYGLQAGRLLWEQELYSQLVYSTPTPFFHTFAGDDCQAGLNFADEDEAQAFRALVQEKIQKRNQRQSGDRRQLPPPPTPANEERRGGLPPLPLHPGGDQGGPPVGPLSLGLATVDIQNPDITSSRYRGLPAPGPSPADKKRSGKKKISKADIGAPSGFKHVSHVGWDPQNGFDVNNLDPDLRSLFSRAGISEAQLTDAETSKLIYDFIEDQGGLEAVRQEMRRQEPLPPPPPPSRGGNQLPRPPIVGGNKGRSGPLPPVPLGIAPPPPTPRGPPPPGRGGPPPPPPPATGRSGPLPPPPPGAGGPPMPPPPPPPPPPPSSGNGPAPPPLPPALVPAGGLAPGGGRGALLDQIRQGIQLNKTPGAPESSALQPPPQSSEGLVGALMHVMQKRSRAIHSSDEGEDQAGDEDEDDEWDD [L35H]	with no effect	disrupting interaction strength	decreasing interaction strength
MSGGPMGGRPGGRGAPAVQQNIPSTLLQDHENQRLFEMLGRKCLTPATAVVQLYLALPPGAEHWTKEHCGAVCFVKDNPQKSYFIRLYGLQAGRLLWEQELYSQLVYSTPTPFFHTFAGDDCQAGLNFADEDEAQAFRALVQEKIQKRNQRQSGDRRQLPPPPTPANEERRGGLPPLPLHPGGDQGGPPVGPLSLGLATVDIQNPDITSSRYRGLPAPGPSPADKKRSGKKKISKADIGAPSGFKHVSHVGWDPQNGFDVNNLDPDLRSLFSRAGISEAQLTDAETSKLIYDFIEDQGGLEAVRQEMRRQEPLPPPPPPSRGGNQLPRPPIVGGNKGRSGPLPPVPLGIAPPPPTPRGPPPPGRGGPPPPPPPATGRSGPLPPPPPGAGGPPMPPPPPPPPPPPSSGNGPAPPPLPPALVPAGGLAPGGGRGALLDQIRQGIQLNKTPGAPESSALQPPPQSSEGLVGALMHVMQKRSRAIHSSDEGEDQAGDEDEDDEWDD [L46P]	disrupting interaction strength		decreasing interaction strength
